Consider three molecules from article PMC3087504, “DNA Damage in Oocytes Induces a Switch of the Quality Control Factor TAp63α from Dimer to Tetramer”.

Data set [1] has as its target T1, MBP-TAp63αR (Mus musculus, UniProt O88898 40-680, R318H).
T1 sequence: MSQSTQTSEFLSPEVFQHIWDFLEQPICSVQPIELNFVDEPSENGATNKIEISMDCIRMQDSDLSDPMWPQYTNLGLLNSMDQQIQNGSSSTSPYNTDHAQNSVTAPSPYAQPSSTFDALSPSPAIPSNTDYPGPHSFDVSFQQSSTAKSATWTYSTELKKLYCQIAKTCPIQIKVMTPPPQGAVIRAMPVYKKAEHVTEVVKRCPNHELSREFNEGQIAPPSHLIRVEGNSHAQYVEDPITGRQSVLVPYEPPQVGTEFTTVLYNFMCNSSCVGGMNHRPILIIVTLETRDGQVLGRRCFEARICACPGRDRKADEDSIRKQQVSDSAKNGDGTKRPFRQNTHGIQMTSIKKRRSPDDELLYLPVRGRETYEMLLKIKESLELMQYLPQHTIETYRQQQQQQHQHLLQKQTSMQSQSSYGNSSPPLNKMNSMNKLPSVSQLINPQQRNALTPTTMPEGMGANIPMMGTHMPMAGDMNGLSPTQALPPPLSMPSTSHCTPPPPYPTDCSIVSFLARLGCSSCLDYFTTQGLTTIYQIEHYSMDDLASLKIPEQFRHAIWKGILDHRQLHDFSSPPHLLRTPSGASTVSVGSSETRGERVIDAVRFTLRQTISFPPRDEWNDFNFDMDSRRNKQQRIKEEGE
Description: fluorescence anisotropy; 300 nM DNA; 10 mM potassium phosphate pH 7.6, 200 mM NaCl, room temperature, 30 min; 15 nM p21 DNA (300 nM for controls), protein 0.1-15 µM monomer. The following applies: protein: recombinant; tags: N-term MBP; C-term His6; chain copies: 4; label: 5'-fluorescein. On the technique in general: Fluorescence polarisation rises when a labelled molecule tumbles more slowly, as on binding a larger partner.

Data set [2] concerns the target T2, MBP-TAp63α (Mus musculus, UniProt O88898 40-680).
T2 sequence: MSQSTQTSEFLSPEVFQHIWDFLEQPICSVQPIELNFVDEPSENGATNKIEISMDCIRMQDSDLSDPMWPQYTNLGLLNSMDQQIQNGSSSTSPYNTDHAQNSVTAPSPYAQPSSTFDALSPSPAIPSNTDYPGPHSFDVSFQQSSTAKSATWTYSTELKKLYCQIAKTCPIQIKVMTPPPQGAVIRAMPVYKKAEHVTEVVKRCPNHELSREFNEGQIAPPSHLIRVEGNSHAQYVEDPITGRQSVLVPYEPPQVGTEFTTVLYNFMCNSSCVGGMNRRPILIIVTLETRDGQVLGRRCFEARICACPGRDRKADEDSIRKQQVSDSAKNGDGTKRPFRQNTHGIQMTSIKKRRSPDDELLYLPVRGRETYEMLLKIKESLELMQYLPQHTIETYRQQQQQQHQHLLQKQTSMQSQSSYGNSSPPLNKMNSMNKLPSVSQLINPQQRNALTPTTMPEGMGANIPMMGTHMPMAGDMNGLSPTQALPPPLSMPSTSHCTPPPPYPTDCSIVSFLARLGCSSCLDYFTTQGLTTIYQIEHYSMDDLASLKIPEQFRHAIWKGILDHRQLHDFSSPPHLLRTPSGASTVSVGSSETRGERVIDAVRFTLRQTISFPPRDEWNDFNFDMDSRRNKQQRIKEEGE
Described as above. The following applies: protein: recombinant; tags: N-term MBP; C-term His6; chain copies: 2; label: 5'-fluorescein.

The target of data set [3] is T2, MBP-TAp63α. The data set can be described thus: fluorescence anisotropy; two-site fit, monomer concentration; second-site KD negative, uninterpreted; 10 mM potassium phosphate pH 7.6, 200 mM NaCl, room temperature, 30 min; 15 nM p21 DNA (300 nM for controls), protein 0.1-15 µM monomer. The following applies: protein: recombinant; tags: N-term MBP; C-term His6; chain copies: 2; label: 5'-fluorescein.

B1: random sequence (dsDNA)
DNA 1: CGAGTTGTAAGTCGAATTGATACCATAATGCACTACACG
DNA 2: CGTGTAGTGCATTATGGTATCAATTCGACTTACAACTCG
With B1, the binding result in data set [1] and in data set [2] was “no binding” in each case.

B2: SELEX-based p63 binding sequence (dsDNA)
DNA 1: CCTATTCTAGACATGTGAGGACATGTCGATACTTATTCC
DNA 2: GGAATAAGTATCGACATGTCCTCACATGTCTAGAATAGG
In the case of B2, the binding result in data set [1] was “no binding”.

B3: p21 promoter response element (dsDNA)
DNA 1: GGCAGGAACATGTCCCAACATGTTGAGCCG
DNA 2: CGGCTCAACATGTTGGGACATGTTCCTGCC
For orientation: Kd means the free concentration of one partner at which half of the binding sites on the other are occupied at equilibrium, for simple one-to-one binding. As for B3, the dissociation constant Kd in data set [3] was 7.51 ± 1.32 µM.
